Assay results as given in patent publication US20030119169A1 (IDUN PHARMACEUTICALS, published 2003).
No end group written: not given here.

Key:
[1] = molecular target: T1, CPP32, bacterially expressed recombinant active enzyme (human, UniProt P42574 29-277, limits assumed); assay: inhibition of hydrolysis of 10 µM DEVD-AMC, continuous fluorometric assay, bacterial lysate, 30 min preincubation
T1 construct: Bacterially expressed (as a GST fusion, as described for Mch3) and used as bacterial lysate; also called recombinant CPP32
T1 sequence (looked up): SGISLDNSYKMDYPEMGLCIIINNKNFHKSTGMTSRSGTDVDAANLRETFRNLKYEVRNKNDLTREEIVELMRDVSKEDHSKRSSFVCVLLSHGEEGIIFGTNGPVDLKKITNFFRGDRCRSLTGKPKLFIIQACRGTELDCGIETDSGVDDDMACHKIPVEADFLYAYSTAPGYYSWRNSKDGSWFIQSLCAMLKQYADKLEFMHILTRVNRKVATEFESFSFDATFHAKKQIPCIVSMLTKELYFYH

[2] = molecular target: T2, Mch3α, bacterially expressed recombinant active enzyme (human, UniProt P55210 24-303, limits assumed); assay: inhibition of hydrolysis of 50 µM DEVD-AMC, continuous fluorometric assay, bacterial lysate, 30 min preincubation
T2 construct: Expressed in E. coli as a GST fusion (Mch3α1 or Mch3α2); also called recombinant Mch3α
T2 sequence: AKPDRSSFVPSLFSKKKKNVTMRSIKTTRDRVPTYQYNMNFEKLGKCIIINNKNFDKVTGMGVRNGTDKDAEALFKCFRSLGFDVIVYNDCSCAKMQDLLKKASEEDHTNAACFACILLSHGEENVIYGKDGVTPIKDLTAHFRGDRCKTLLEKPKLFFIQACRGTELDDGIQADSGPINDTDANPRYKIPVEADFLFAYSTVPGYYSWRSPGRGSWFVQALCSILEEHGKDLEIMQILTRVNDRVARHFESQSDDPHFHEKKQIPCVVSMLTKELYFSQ

## DEVD-aldehyde (also called DEVD-CHO) [tetrapeptide DEVD aldehyde]
[1]
  Ki: 0.59 nM
[2]
  Ki: 1.8 nM
